Measured values as given in patent publication US20240117062A1 (published 2024).
Numbering of substitutions follows the chain as printed.

T1: Human BCMA-Avi-His (human, UniProt Q02223 2-54)
T1 chain: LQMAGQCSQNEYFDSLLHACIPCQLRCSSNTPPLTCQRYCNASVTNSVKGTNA

T2: Human BCMA DTA-His (human;, UniProt Q02223 1-54; P00588 33-225)
T2 chain: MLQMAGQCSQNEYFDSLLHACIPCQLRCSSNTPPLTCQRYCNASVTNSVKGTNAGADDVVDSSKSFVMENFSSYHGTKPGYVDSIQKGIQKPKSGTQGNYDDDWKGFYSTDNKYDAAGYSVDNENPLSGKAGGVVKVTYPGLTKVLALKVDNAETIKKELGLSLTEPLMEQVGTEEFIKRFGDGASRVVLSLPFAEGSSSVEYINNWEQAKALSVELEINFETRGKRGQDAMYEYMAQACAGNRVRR

B1: CA10_parental (antibody, V domains shown)
VH: QVQLVESGGGVVQPGRSLRLSCAASGFTFSNFGMHWVRQAPGRGLEWVAVIWSDETNRYYADSVKGRFTVSRDNVKSTVYLQMNSLISEDTAVYYCARDQQYCSSDSCFTWFDPWGQGTLVTVSS
VL: QVVVTQESALTTSPGETVTLTCRSSTGTVTPSNYANWVQEKPDHFFTGLIGDNNSRPPGVPARFSASLIGDKAALTITGAQTEDEAMYFCALWFGNQWVFGGGTKVTVL
B2: CA10 Variant 2 (antibody, V domains shown)
VH: B1 VH
VL: QTVVTQEPSLTVSPGGTVTLTCASSTGTVTPSNYANWVQQKPGQAPRGLIGDNNSRPPGTPARFSASLLGGKAALTLSGVQPEDEAEYYCALWFGNQWVFGGGTKLTVL
B3: CA10 Variant 6 (antibody, V domains shown)
VH: B1 VH
VL: B2 VL with A45F
B4: CA10 Variant 3 (antibody, V domains shown)
VH: B1 VH
VL: B2 VL with T28A, S55I, R56K, G59W, A66G, F94Y, N96G
B5: CA10 Variant 5 (CA10_PE_V5) (antibody, V domains shown)
VH: B1 VH
VL: QTVVTQEPSLTVSPGGTVTLTCASSTGAVTSGYYANWVQQKPGQAPRALIGDNNIKPSWTPARFSGSLLGGKAALTLSGVQPEDEAEYYCALYYGGQWVFGGGTKLTVL
B6: CA10 Variant 4 (antibody, V domains shown)
VH: B1 VH
VL: B5 VL with S31P, A48G, I55N, S58P
B7: CA10 Variant 1 (antibody, V domains shown)
VH: B1 VH
VL: B2 VL with A23R, G43D, Q44H, A45F, P46F, R47T, T60V, L69I, G71D

What was measured:
Assay in all cases: SPR
[1] = target: T1, Human BCMA-Avi-His
[2] = target: Cyno BCMA-Avi-His (cynomolgus, UniProt A0A2K5UD97 2-53)
[3] = target: T2, Human BCMA DTA-His
[4] = target: Cyno BCMA DTA-His (cynomolgus;, UniProt A0A2K5UD97 1-53; P00588 33-225)

Sequence of Cyno BCMA-Avi-His (A0A2K5UD97 entry or part of it): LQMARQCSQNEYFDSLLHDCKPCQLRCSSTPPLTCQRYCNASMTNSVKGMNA

Row | Binder | Kd [1] | Kd [2] | Kd [3] | Kd [4]
1 | B1 | 0.0694 nM | 1.43 nM | 0.393 nM | 0.0314 nM
2 | B2 | 0.0666 nM | 1.89 nM | 0.478 nM | 0.0915 nM
3 | B3 | 0.075 nM | 1.18 nM | 0.0399 nM | 0.0962 nM
4 | B4 | 0.182 nM | 11.6 nM | 0.247 nM | 0.861 nM
5 | B5 |  | 8.55 nM |  | 1.26 nM
6 | B6 | 2.57 nM | 64.2 nM | 3.07 nM | 13 nM
7 | B7 | 0.0573 nM | 0.732 nM | 0.247 nM | 0.0418 nM
